From publication PMC9652331, “Cryo-EM structures of human m^6A writer complexes” (Cell Research, 2022)

Biological target: the molecule itself
Experiment: cross-linking; BS3 XL-MS of purified MACOM (Fig. S4a, b): 0.5 mM BS3, 50 mM HEPES pH 7.5, 100 mM KCl, 5% glycerol, 25 °C, 2 h; pLink2

B1: Wilms' tumor 1-associated protein (WTAP), full length, N-6× His-WTAP (natural protein, human, UniProt Q15007 1-396, looked up)
chain: MTNEEPLPKKVRLSETDFKVMARDELILRWKQYEAYVQALEGKYTDLNSNDVTGLRESEEKLKQQQQESARRENILVMRLATKEQEMQECTTQIQYLKQVQQPSVAQLRSTMVDPAINLFFLKMKGELEQTKDKLEQAQNELSAWKFTPDSQTGKKLMAKCRMLIQENQELGRQLSQGRIAQLEAELALQKKYSEELKSSQDELNDFIIQLDEEVEGMQSTILVLQQQLKETRQQLAQYQQQQSQASAPSTSRTTASEPVEQSEATSKDCSRLTNGPSNGSSSRQRTSGSGFHREGNTTEDDFPSSPGNGNKSSNSSEERTGRGGSGYVNQLSAGYESVDSPTGSENSLTHQSNDTDSSHDPQEEKAVSGKGNRTVGSRHVQNGLDSSVNVQGSVL
notes: Wilms' tumor 1-associated protein (WTAP), human, full length; Stands as a homodimer in the MACOM complexes (two copies, WTAP-a and WTAP-b); No removal of the His tag is described; also called WTAP-a; WTAP-b; source: High Five insect cells, co-expressed with the other MACOM components, purified as a complex (Ni-NTA, STREP beads, SEC); not shown: 6× His, N-terminal, kept
binding result: binds
